The target in experiment [1] is hRpn13 pleckstrin-like receptor for ubiquitin (Pru) domain (human, UniProt Q16186 1-150). The experiment can be described thus: ITC.
The target in another experiment is M1 diubiquitin (UniProt P0CG48 1-76; P0CG48 1-76). Description: pull-down.

Sequence of hRpn13 pleckstrin-like receptor for ubiquitin (Pru) domain (Q16186 1-150): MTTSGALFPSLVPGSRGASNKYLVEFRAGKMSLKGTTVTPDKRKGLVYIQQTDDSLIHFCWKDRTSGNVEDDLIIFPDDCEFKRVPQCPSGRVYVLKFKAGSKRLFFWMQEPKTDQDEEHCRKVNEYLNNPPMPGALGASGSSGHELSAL

B1: hPLIC2 ubiquitin-like (UBL) domain (domain or fragment, human, UniProt Q9UHD9 33-107, looked up)
chain: IKVTVKTPKEKEEFAVPENSSVQQFKEAISKRFKSQTDQLVLIFAGKILKDQDTLIQHGIHDGLTVHLVIKSQNR
Broadly, the Kd is the concentration at which binding is half-saturated. A higher Kd goes with weaker binding. Take B1: the equilibrium dissociation constant (Kd) in experiment [1] amounted to 9.3 ± 0.5 µM.

B2: GST-hRpn13^Pru (domain or fragment, human)
chain: TTSGALFPSLVPGSRGASNKYLVEFRAGKMSLKGTTVTPDKRKGLVYIQQTDDSLIHFCWKDRTSGNVEDDLIIFPDDCEFKRVPQCPSGRVYVLKFKAGSKRLFFWMQEPKTDQDEEHCRKVNEYLNNPPMPGALGASGSSGHELSAL
As to B2, in the experiment with M1 diubiquitin, the binding result is “binds”.
